Test results taken from US20110171242A1 (published 2011).

B6: LTα homotrimer (ligand, UniProt P01374 35-205, looked up)
chain: LPGVGLTPSAAQTARQHPKMHLAHSTLKPAAHLIGDPSKQNSLLWRANTDRAFLQDGFSLSNNSLLVPTSGIYFVYSQVVFSGKAYSPKATSSPLYLAHEVQLFSSQYPFHVPLLSSQKMVYPGLQEPWLHSMYHGAAFQLTQGDQLSTHTDGIPHLVLSPSTVFFGAFAL
B7: human HVEM:Fc (Fc of human IgG1) (Fc fusion, UniProt Q92956 39-184, looked up)
chain: LPSCKEDEYPVGSECCPKCSPGYRVKEACGELTGTVCEPCPPGTYIAHLNGLSKCLQCQMCDPAMGLRASRNCSRTENAVCGCSPGHFCIVQDGDHCAACRAYATSSPGQRVQKGGTESQDTLCQNCPPGTFSPNGTLEECQHQTK
notes: range 1-184; Bivalent chimeric protein made with baculovirus vector pVL1392; also called huHVEM:Fc; hu HVEM:Fc; not shown: Fc region of human IgG1
B8: murine LTβR:Fc (Fc fusion, mouse, UniProt P50284 31-221, looked up)
chain: QLVPPYRIENQTCWDQDKEYYEPMHDVCCSRCPPGEFVFAVCSRSQDTVCKTCPHNSYNEHWNHLSTCQLCRPCDIVLGFEEVAPCTSDRKAECRCQPGMSCVYLDNECVHCEEERLVLCQPGTEAEVTDEIMDTDVNCVPCKPGHFQNTSSPRARCQPHTRCEIQGLVEAAPGTSYSDTICKNPPEPGAM
notes: range 1-221; Encoded range includes the signal peptide; also called muLTβR:Fc; mouse LTβR:Fc; not shown: Fc region; human IgG1 by the opening sentence of the paragraph, not restated for this construct
B9: p30 (LIGHT), the cell surface HVEM ligand of activated II-23.D7 cells and human T cells (ligand)
chain: MEESVVRPSVFVVDGQTDIPFTRLGRSHRRQSCSVARVGLGLLLLLMGAGLAWQGWFLLQLHWRLGEMVTRLPDGPAGSWEQLIQERRSHEVNPAAHLTGANSSLTGSGGPLLWETQLGLAFLRGLSYHDGALVVTKAGYYYIYSKVQLGGVGCPLGLASTITHGLYKRTPRYPEELELLVSQQSPCGRATSSSRVWWDSSFLGGVVHLEAGEEVVVRVLDERLVRLRDGTRSYFGAFMV
notes: see m1; also called 30 kDa protein; cell surface ligand for HVEM

Experiments:
[1] = target: LTβR (whole, in cells) (human, UniProt P36941 31-435); assay: cell-based or functional assay
[2] = target: T1, murine HVEM:Fc (mouse; human, UniProt Q80WM9 39-205; P01857 99-330 = IgG part); assay: ELISA, plate-bound receptor:Fc, M2 anti-FLAG detection
T1 construct: range 1-205;domain: Fc region; Produced in TN5 insect cells, protein A purified, 58 kDa reduced; Encoded range includes the signal peptide; also called muHVEM:Fc; mouse HVEM:Fc
T1 sequence (Q80WM9 other isoform, or with tags, fused parts or gaps): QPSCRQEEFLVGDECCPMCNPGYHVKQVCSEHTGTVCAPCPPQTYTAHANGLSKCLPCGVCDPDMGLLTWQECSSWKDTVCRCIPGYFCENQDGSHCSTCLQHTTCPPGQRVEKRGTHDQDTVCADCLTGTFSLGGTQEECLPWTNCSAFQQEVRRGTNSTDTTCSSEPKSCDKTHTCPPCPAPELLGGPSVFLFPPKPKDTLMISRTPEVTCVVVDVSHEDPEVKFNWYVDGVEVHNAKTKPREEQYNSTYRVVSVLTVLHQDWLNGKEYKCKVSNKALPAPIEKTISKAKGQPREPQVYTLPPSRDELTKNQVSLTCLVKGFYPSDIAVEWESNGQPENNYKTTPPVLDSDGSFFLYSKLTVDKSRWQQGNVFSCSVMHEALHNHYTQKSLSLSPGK
Protocol: (§1) After washing with PBS/0.5% Tween, samples were applied diluted in PBS/3% BSA and incubated for 1 h at RT. After washing wells were incubated with monoclonal anti-FLAG (M2) (10 μg/ml in PBS/BSA) for 1 h at RT, washed and incubated with goat anti-mouse HRP (1:5000) for 1 hr at RT. […] The OD was measured at 415 nm in a SpectraMax plate reader (Molecular Devices Corp., Sunnyvale, Calif.).

[3] = target: B8; assay: as above
Protocol: as §1

[4] = target: B7; assay: SPR (BIAcore 1000), receptor:Fc amine-coupled to CM5 chip, LIGHT as analyte 100-500 nM, 25 C
Protocol: (§2) The sensor surface was equilibrated with PBS (20 mM sodium phosphate/150 mM NaCl, pH 7.4) and sensorgrams were collected at 25° C. and a flow rate of 5 μl/min. […] The sensor surface was regenerated after each cycle with a 10 μl pulse of 10 mM glycine pH 2.0. Sets of 5 analyte concentrations, 100 to 500 nM were collected, and analyzed by nonlinear regression using the BIlAevaluation software (2.1)™. Association and dissociation data were fitted on the basis of the simple AB⇄A+B model.

[5] = target: T2, human LTβR:Fc (human, UniProt P36941 31-227, limits assumed); assay: as above
T2 construct: Bivalent chimeric protein, previously described; also called huLTβR:Fc; hu LTβR:Fc; not shown: Fc region of human IgG1
T2 sequence (P36941 31-227 limits assumed): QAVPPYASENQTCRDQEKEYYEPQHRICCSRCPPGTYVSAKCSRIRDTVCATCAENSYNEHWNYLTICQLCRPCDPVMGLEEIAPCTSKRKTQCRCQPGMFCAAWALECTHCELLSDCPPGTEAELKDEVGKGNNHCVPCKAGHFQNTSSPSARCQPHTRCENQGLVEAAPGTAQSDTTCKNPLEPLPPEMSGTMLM

[6] = target: B7; assay: SPR
Protocol: as §2

[7] = target: T2, human LTβR:Fc; assay: SPR (BIAcore 1000), receptor:Fc amine-coupled to CM5 chip, LIGHT mutant as analyte
Protocol: as §2

[8] = target: B7; assay: ELISA, plate-bound receptor:Fc, M2 anti-FLAG detection
Protocol: as §1

[9] = target: T3, TNFR1 on normal human dermal fibroblasts (human, UniProt P19438 30-455); assay: cell-based or functional assay
T3 sequence (looked up): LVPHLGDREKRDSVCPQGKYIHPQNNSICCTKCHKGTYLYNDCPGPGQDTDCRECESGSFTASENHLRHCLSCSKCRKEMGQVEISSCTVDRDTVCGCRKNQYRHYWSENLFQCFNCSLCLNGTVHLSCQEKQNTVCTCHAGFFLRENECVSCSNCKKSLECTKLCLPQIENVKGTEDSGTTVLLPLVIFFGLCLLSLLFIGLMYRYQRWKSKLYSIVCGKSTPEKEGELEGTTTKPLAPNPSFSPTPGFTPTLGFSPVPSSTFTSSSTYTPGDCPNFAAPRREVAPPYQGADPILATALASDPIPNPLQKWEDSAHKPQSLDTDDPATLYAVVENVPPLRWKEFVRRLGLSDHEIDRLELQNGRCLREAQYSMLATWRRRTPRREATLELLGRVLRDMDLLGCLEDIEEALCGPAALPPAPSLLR

[10] = target: B9; assay: flow cytometry, graded HVEM:Fc on activated II-23.D7 cells
Protocol: II-23.D7 cells were activated for 4 hours at 37° C. with phorbol myristate acetate (PMA) (100 ng/ml), or PMA (100 ng/ml) and ionomycin (1 μg/ml). […] Stained cells were analyzed by flow cytometry (FACSCaliber, Becton-Dickenson). Receptor binding was determined by calculating the fluorescence intensity=(mean fluorescent channel) (% positive fluorescent events), where a positive event has a fluorescence value >98% of the value for normal IgG. Specific fluorescence intensity represents the fluorescence intensity after subtraction of the value for control IgG. Each histogram represents 10₄ events.

[11] = target: B6; assay: precipitation of 35S-labelled proteins with receptor:Fc and protein G, SDS-PAGE
[12] = target: TNF (UniProt P01375 77-233); assay: precipitation of 35S-labelled secreted proteins of activated II-23.D7 cells with receptor:Fc 10 µg/ml and protein G, SDS-PAGE
Sequence of TNF (P01375 77-233 limits assumed): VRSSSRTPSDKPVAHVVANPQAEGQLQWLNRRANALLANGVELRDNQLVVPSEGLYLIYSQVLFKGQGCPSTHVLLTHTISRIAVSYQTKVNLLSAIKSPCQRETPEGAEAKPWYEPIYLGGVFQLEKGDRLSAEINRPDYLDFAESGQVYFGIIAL
Protocol: The culture supernatants were harvested and the cells lysed in buffer containing 2% NP40, HEPES pH7.0, 20 mM EDTA, 150 mM NaCl with leupeptin and aprotinin (at 10 μg/ml), PMSF (1 mM) and iodoacetamide (20 mM). The extract was precleared with human IgG (10 μg), where indicated, anti-LT antibodies and protein G beads. The receptor:Fc fusion proteins (10 μg/ml) were then added to the samples and precipitated with protein G beads. Labeled proteins were analyzed by reducing SDS-PAGE and phosphoimage (pixel range 6-200).

[13] = target: T4, LTα1β2 complex from II-23.D7 cells (human, UniProt P01374 35-205; Q06643 1-244); assay: 2D electrophoresis of proteins bound to murine LTβR:Fc, FIG. 4A
T4 construct: also called LTβ (33 kDa) and LTα (23-25 kDa) complex
T4 sequence (looked up) 1: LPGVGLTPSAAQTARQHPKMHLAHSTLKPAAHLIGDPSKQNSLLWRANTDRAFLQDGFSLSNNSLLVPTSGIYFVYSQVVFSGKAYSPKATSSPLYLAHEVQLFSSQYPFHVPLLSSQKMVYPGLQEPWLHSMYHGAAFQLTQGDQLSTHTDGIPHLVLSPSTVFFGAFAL
T4 sequence (looked up) 2: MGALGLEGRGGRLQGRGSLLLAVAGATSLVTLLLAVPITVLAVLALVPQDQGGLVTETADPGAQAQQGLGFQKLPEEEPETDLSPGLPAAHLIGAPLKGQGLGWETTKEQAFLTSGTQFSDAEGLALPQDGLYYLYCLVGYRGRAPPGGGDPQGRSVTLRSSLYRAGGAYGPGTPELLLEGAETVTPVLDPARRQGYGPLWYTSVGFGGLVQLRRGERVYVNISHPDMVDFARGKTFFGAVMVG

[14] = target: T5, TNFR60:Fc (human, UniProt P19438 30-211, limits assumed); assay: precipitation from detergent extracts of activated II-23.D7 cells, SDS-PAGE and 2D electrophoresis
T5 construct: Previously described construct (Crowe 1994); also called TNFR:Fc; TNFR1-Fc; not shown: Fc region of human IgG1
T5 sequence (looked up): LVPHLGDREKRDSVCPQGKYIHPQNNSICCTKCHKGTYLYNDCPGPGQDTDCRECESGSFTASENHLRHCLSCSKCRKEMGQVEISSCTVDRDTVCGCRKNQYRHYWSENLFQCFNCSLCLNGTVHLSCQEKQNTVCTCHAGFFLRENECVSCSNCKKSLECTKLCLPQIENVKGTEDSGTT

B1: LIGHTt66-FLAG (ligand, not shown: small tags and cut ends)
chain: EMVTRLPDGPAGSWEQLIQERRSHEVNPAAHLTGANSSLTGSGGPLLWETQLGLAFLRGLSYHDGALVVTKAGYYYIYSKVQLGGVGCPLGLASTITHGLYKRTPRYPEELELLVSQQSPCGRATSSSRVWWDSSFLGGVVHLEAGEEVVVRVLDERLVRLRDGTRSYFGAFMV
notes: also called soluble homotrimeric LIGHT; recombinant soluble LIGHT
- IC50 for inhibition of HCMV pp28 expression (western blot) [1]: ~0.4 nM
- up-regulation of ICAM expression by NHDF cells (flow cytometry, 36 h, 5 nM) [1]: 4 fold
- fold lower affinity than for the human receptor [2]: 10 fold
- fold lower affinity than for the human receptor [3]: 10 fold
- Kd [4]: 3.9 nM
- koff [4]: 4.8e-05 s⁻¹
- kon [4]: 12000 M⁻¹ s⁻¹
- Kd [5]: 4.5 nM
- koff [5]: 0.00012 s⁻¹
- kon [5]: 27000 M⁻¹ s⁻¹

B2: LIGHT t66 G119E (ligand, not shown: small tags and cut ends)
chain: EMVTRLPDGPAGSWEQLIQERRSHEVNPAAHLTGANSSLTGSGGPLLWETQLELAFLRGLSYHDGALVVTKAGYYYIYSKVQLGGVGCPLGLASTITHGLYKRTPRYPEELELLVSQQSPCGRATSSSRVWWDSSFLGGVVHLEAGEEVVVRVLDERLVRLRDGTRSYFGAFMV
notes: FLAG-tagged point mutant from transiently transfected 293T cells, homotrimer; also called LIGHTG119E; LIGHT-G119E
- fold lower affinity than LIGHT t66 [6]: ~30 fold
- up-regulation of ICAM expression by NHDF cells (flow cytometry, 36 h, 20 nM) [1]: < 1.5 fold
- binding result [2]: no binding
- binding result [3]: no binding
- binding result [7]: no binding (tested: 100 to 500 nM)
- Kd [4]: 114 nM
- koff [4]: 0.002 s⁻¹
- kon [4]: 18000 M⁻¹ s⁻¹

B3: LIGHT t66 L120Q (ligand, not shown: small tags and cut ends)
chain: EMVTRLPDGPAGSWEQLIQERRSHEVNPAAHLTGANSSLTGSGGPLLWETQLGQAFLRGLSYHDGALVVTKAGYYYIYSKVQLGGVGCPLGLASTITHGLYKRTPRYPEELELLVSQQSPCGRATSSSRVWWDSSFLGGVVHLEAGEEVVVRVLDERLVRLRDGTRSYFGAFMV
notes: FLAG-tagged point mutant from transiently transfected 293T cells, homotrimer; also called L12OQ
- binding result [8]: binds
- binding result [3]: binds

B4: LIGHT t66 Q117T (ligand, not shown: small tags and cut ends)
chain: EMVTRLPDGPAGSWEQLIQERRSHEVNPAAHLTGANSSLTGSGGPLLWETTLGLAFLRGLSYHDGALVVTKAGYYYIYSKVQLGGVGCPLGLASTITHGLYKRTPRYPEELELLVSQQSPCGRATSSSRVWWDSSFLGGVVHLEAGEEVVVRVLDERLVRLRDGTRSYFGAFMV
notes: FLAG-tagged point mutant from transiently transfected 293T cells, homotrimer; also called Q11TT
- Kd [4]: 0.3 nM
- koff [4]: 5e-06 s⁻¹
- kon [4]: 20000 M⁻¹ s⁻¹
- Kd [5]: 1.5 nM
- koff [5]: 4.5e-05 s⁻¹
- kon [5]: 32000 M⁻¹ s⁻¹

B5: LIGHT t66 Y173F (ligand, not shown: small tags and cut ends)
chain: EMVTRLPDGPAGSWEQLIQERRSHEVNPAAHLTGANSSLTGSGGPLLWETQLGLAFLRGLSYHDGALVVTKAGYYYIYSKVQLGGVGCPLGLASTITHGLYKRTPRFPEELELLVSQQSPCGRATSSSRVWWDSSFLGGVVHLEAGEEVVVRVLDERLVRLRDGTRSYFGAFMV
notes: FLAG-tagged point mutant from transiently transfected 293T cells, homotrimer
- Kd [6]: 180 nM
- fold lower affinity than LIGHT t66 [6]: > 40 fold
- up-regulation of ICAM expression by NHDF cells (flow cytometry, 36 h, 20 nM) [1]: 2.5 fold
- binding result [2]: no binding
- binding result [3]: no binding
- Kd [4]: 173 nM
- koff [4]: 0.0033 s⁻¹
- kon [4]: 19000 M⁻¹ s⁻¹
- Kd [5]: 31 nM
- koff [5]: 0.0011 s⁻¹
- kon [5]: 37000 M⁻¹ s⁻¹

Binder: B6
- IC50 for inhibition of HCMV pp28 expression (western blot) [9]: ~0.01 nM
- anti-viral activity against LTα1β2 and LIGHT (pp28 expression) [9]: ≥ 40 fold

Binder: B7
- EC50 [10]: ~20 nM
- binding result [11]: binds
- binding result [12]: no binding

Binder: B8
- binding result [13]: binds

Binder: B9
- binding result [14]: no binding
